± gives the standard deviation of the averaged measurements.
Tested on: Saccharomyces cerevisiae
Test: protein stability index of tFT-peptide fusion (C-terminal peptide) (PSI (0-1 scale)); higher = more stable (slower turnover)
Conditions: genetic background: wild type; temperature: 30 C
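Note: PSI is a weighted mean of sequencing reads over stability bins, variants kept only with over 10 reads, mCherry proximal and sfGFP distal, peptide attached via GGGS linker.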

| Sequence | protein stability index |
| --- | --- |
| AAEPGGGTALRG | 0.637 ± 0.029 |
| GGGVRWRVGRGG | 0.686 ± 0.0082 |
| VGGVRGAGCVRG | 0.705 ± 0.024 |
| WTFPWICFLGFG | 0.589 ± 0.029 |
| NIMNKIFQKQKE | 0.642 ± 0.092 |
| NENFILCPRVNL | 0.701 ± 0.035 |
| IKRKQRKRKSEK | 0.86 ± 0.14 |
| YPHQRGRPDAHH | 0.71 ± 0.021 |
| SGLAARFGLPIR | 0.674 ± 0.016 |
| SMMMIISQRKTR | 0.787 ± 0.1 |
| TFPHSWHISSVP | 0.677 ± 0.024 |
| TGSRGPHRKPPD | 0.691 ± 0.0077 |
| AALLSSPPLSPP | 0.662 ± 0.062 |
| CLSPAFGCWWIV | 0.582 ± 0.11 |
| PPPPPTLPSCLS | 0.689 ± 0.063 |
| DFVLKQIARINL | 0.648 ± 0.021 |
| LPPASSPPLLTP | 0.696 ± 0.083 |
| RVAWFSSNCFAV | 0.571 ± 0.061 |
| GTDVFTQAVRNC | 0.641 ± 0.019 |
| EGGMLNAVRPRS | 0.663 ± 0.048 |
| APPPLPPTPPPL | 0.7017 ± 0.0031 |
| IEHYPVSSPKMR | 0.623 ± 0.079 |
| SVALSSPSRYCS | 0.7137 ± 0.00077 |
| LERSSHRTEFLS | 0.587 ± 0.032 |
| GPHGNPGLAPLA | 0.7282 ± 0.0021 |
| STPPCRPFMADL | 0.619 ± 0.0035 |

| Sequence | protein stability index |
| --- | --- |
| TVGLSLGRGSGD | 0.67 ± 0.024 |
| MAWGVGTRRLGW | 0.679 ± 0.044 |
| LTACLRRTNTLM | 0.503 ± 0.0041 |
| FLFRLWGLLAEG | 0.583 ± 0.082 |
| CYCPPPGMPVPF | 0.736 ± 0.095 |
| GFDFLHHIVASS | 0.728 ± 0.017 |
| NHVAPNSPSPQD | 0.731 ± 0.027 |
| SMFLGLCGSIYG | 0.699 ± 0.056 |
| CRLSCRSVDAST | 0.662 ± 0.022 |
| EHCGRGMGSGAA | 0.673 ± 0.012 |
| LWISVDEGQLCH | 0.617 ± 0.042 |
| YHLISSVRLPSS | 0.731 ± 0.033 |
| LADLSAPAPCLP | 0.689 ± 0.091 |
| FFPPAPLTSLLP | 0.697 ± 0.057 |
| SGSPVFLDPPLS | 0.698 ± 0.015 |
| LCSRICGVVARA | 0.613 ± 0.042 |
| PPPPPPPPRPLL | 0.787 ± 0.16 |
| GLCTSIFSVVFF | 0.679 ± 0.092 |
| ASPSKVSGLNID | 0.785 ± 0.097 |
| RLGVWVWGFTPG | 0.742 ± 0.082 |
| GHIQDSLSPDPH | 0.613 ± 0.013 |
| VRSLFSFRLRGS | 0.633 ± 0.056 |
| YAVIRILCSSRR | 0.5725 ± 0.0039 |
| CSSLLSSFSLRL | 0.671 ± 0.038 |
| QNLEDDLSIAGS | 0.703 ± 0.02 |
| SLSPLPSPPPPP | 0.7 ± 0.0087 |

| Sequence | protein stability index |
| --- | --- |
| GPAGGGRLECGV | 0.7157 ± 0.0069 |
| GKNKRERNRSSG | 0.771 ± 0.14 |
| VGLGRPAAAWRR | 0.71 ± 0.00097 |
| KTHKKRYRKGNT | 0.725 ± 0.12 |
| RRGPLDSVLVAI | 0.713 ± 0.05 |
| DGGRPFQKLYVA | 0.663 ± 0.014 |
| FKQLKKKKKNRR | 0.741 ± 0.091 |
| DPVLPSVRVSLG | 0.715 ± 0.068 |
| MFDSHQWVCIKD | 0.785 ± 0.1 |
| GRTPGNALKRND | 0.632 ± 0.03 |
| CINDSEYHSTMF | 0.741 ± 0.043 |
| HSPASLPHLSGK | 0.728 ± 0.063 |
| ASTMAVLDYAPA | 0.621 ± 0.0083 |
| AAGRRGWGRGRG | 0.788 ± 0.15 |
| RPASSYPPHSPT | 0.767 ± 0.037 |
| ETVLQVRRRVVR | 0.6553 ± 0.0028 |
| LSPHPPITHPTP | 0.683 ± 0.034 |
| GCGRYWGVVRGC | 0.66 ± 0.037 |
| KRKRKKKSEKEE | 0.652 ± 0.025 |
| WFRGRIFLFPLV | 0.628 ± 0.014 |
| VSSTLVARTVWC | 0.69 ± 0.035 |
| QPRPSISGLSPT | 0.642 ± 0.02 |
| YAVGSAGLGVGL | 0.697 ± 0.1 |
| GQHAAVNASVVR | 0.665 ± 0.013 |
| CRVVRPSLEPQV | 0.697 ± 0.02 |
| GGCCLWVGFPGG | 0.6957 ± 0.0051 |

| Sequence | protein stability index |
| --- | --- |
| RAVAGGPMPGSG | 0.732 ± 0.044 |
| AADNTGRNKGPQ | 0.685 ± 0.0095 |
| GAKHDSSRQSLR | 0.746 ± 0.086 |
| VRRETGPPRAPT | 0.6717 ± 0.0019 |
| SPTPINALRPPT | 0.695 ± 0.032 |
| AWGELGAGVFGL | 0.68 ± 0.049 |
| KNIRKITHGIGN | 0.623 ± 0.072 |
| EVVCLGKTTLKR | 0.692 ± 0.041 |
| HRNPNLPFPPPL | 0.74 ± 0.069 |
| FVKEGRVGTARS | 0.687 ± 0.099 |
| KGVGGSTSRGGE | 0.666 ± 0.047 |
| PPPPPAPLPSSL | 0.671 ± 0.02 |
| LRARSSKPPYWL | 0.737 ± 0.028 |
| ELVISTGRLQKS | 0.637 ± 0.019 |
| PVPSPLLPSFSL | 0.715 ± 0.064 |
| MSEFDVPLPIYM | 0.716 ± 0.063 |
| AAGLHFYIFRGI | 0.669 ± 0.025 |
| GKERIYVYGWSK | 0.686 ± 0.016 |
| PPPSTGGTRSNV | 0.6809 ± 0.0051 |
| LVCGIGFIYFGF | 0.492 ± 0.014 |
| SSLPSFPTKCPF | 0.71 ± 0.051 |
| RRRAGSKEKQRK | 0.703 ± 0.019 |
| SPCPPPPPSPPS | 0.6637 ± 0.0013 |
| TINVWFARTNPD | 0.7403 ± 0.0048 |
| FVPQPFTPPSSF | 0.685 ± 0.065 |
| QKKIKNKRQHRT | 0.795 ± 0.11 |

| Sequence | protein stability index |
| --- | --- |
| GSMVRSDSFLRP | 0.66 ± 0.019 |
| PSPPPPPPPGSF | 0.677 ± 0.06 |
| SPVGRRTLPSGF | 0.692 ± 0.023 |
| PPAPPPLPPPPP | 0.729 ± 0.0092 |
| KGLKRNENGTMS | 0.638 ± 0.017 |
| LPPPPSPESPLS | 0.722 ± 0.045 |
| HPSEPCKSQILL | 0.712 ± 0.027 |
| PSSTSPPPPPPP | 0.695 ± 0.025 |
| WISARQHQKTRL | 0.702 ± 0.065 |
| PPSPPPPPRFLP | 0.662 ± 0.041 |
| HASPPPDASPPL | 0.687 ± 0.022 |
| SRPRPPVTPPSE | 0.648 ± 0.054 |
| QCQVKGIFKKVF | 0.687 ± 0.0076 |
| GKSVVAHGLLGG | 0.6702 ± 0.0018 |
| GYDLSASRALLA | 0.65 ± 0.019 |
| DVLVHETFLCRL | 0.774 ± 0.016 |
| QTLQHLQTPSIS | 0.761 ± 0.092 |
| LLPPSPFTPPPF | 0.742 ± 0.076 |
| RFASGAVLSWAC | 0.695 ± 0.015 |
| KKKKKKKKKPEK | 0.708 ± 0.022 |
| ILFIKQKYLIKK | 0.6878 ± 0.003 |
| VRAGFRAWGVSE | 0.572 ± 0.2 |
| PCPSVLPISLPH | 0.713 ± 0.06 |
| LRFLVVTGSSCS | 0.665 ± 0.052 |
| RVGPLLLTAGPR | 0.644 ± 0.029 |
| MVGGVLLSGCRF | 0.6455 ± 0.0021 |

| Sequence | protein stability index |
| --- | --- |
| LHPPLPPLPFSA | 0.679 ± 0.017 |
| LRCRLCRFFPFL | 0.714 ± 0.044 |
| NFQLIKKHSKNN | 0.63552 ± 0.00029 |
| FSHLYCSLVTTD | 0.681 ± 0.067 |
| KDGGRGGLNWCV | 0.745 ± 0.095 |
| RTRTGRPKSPLH | 0.6354 ± 0.0052 |
| RIADSLTPAHPA | 0.699 ± 0.023 |
| GIDVGCEWYQGG | 0.698 ± 0.037 |
| PAPTRPSPPPLP | 0.641 ± 0.013 |
| AARCSPSQEDSF | 0.697 ± 0.12 |
| PPAVRRPRRGGN | 0.699 ± 0.016 |
| KKKKKSKKQKKK | 0.733 ± 0.019 |
| RPAPSRTYLNLI | 0.674 ± 0.026 |
| GCHRRDALRTGD | 0.667 ± 0.053 |
| FPSSSHLPWLLI | 0.633 ± 0.014 |
| VDLYVRRVGVGG | 0.631 ± 0.037 |
| SIGACGEVTFGC | 0.7083 ± 0.00078 |
| SPPSPLRPPPPS | 0.7 ± 0.01 |
| KTERRKEENTGE | 0.665 ± 0.041 |
| PPPPPCSPPSPP | 0.681 ± 0.025 |
| PSLARWLTLGYM | 0.63 ± 0.013 |
| PPPRPPSTTSPC | 0.7037 ± 0.0047 |
| CFLLSSFSLPRS | 0.705 ± 0.0078 |
| PPNLLPPLSPSL | 0.678 ± 0.08 |
| RLVSPPPLPHRP | 0.688 ± 0.0062 |
| GGLGGVRAGREG | 0.711 ± 0.02 |

| Sequence | protein stability index |
| --- | --- |
| PLSPPPPPRPPL | 0.728 ± 0.019 |
| RPTPSAPHRTRI | 0.735 ± 0.041 |
| GRRVAWGAQGLG | 0.602 ± 0.046 |
| PLPARFPPSPPS | 0.743 ± 0.074 |
| HLPPSSPPLAVI | 0.68 ± 0.009 |
| RSAVPSARASAD | 0.6431 ± 0.0026 |
| DRNGKIGTFKKV | 0.795 ± 0.12 |
| KQKNKTNKKNTK | 0.661 ± 0.025 |
| RLGDALCFSFTV | 0.644 ± 0.032 |
| NKKVRSKRKEMN | 0.637 ± 0.093 |
| GMLLCAGGISKG | 0.584 ± 0.011 |
| CVERVGSTPMDS | 0.607 ± 0.053 |
| SPPPPPPPPFPL | 0.672 ± 0.033 |
| ALRVSGAYREHS | 0.735 ± 0.032 |
| IRQTIEGRRLVM | 0.662 ± 0.026 |
| GPSRTPRHPSPP | 0.701 ± 0.053 |
| LTLCRSPMSLRA | 0.633 ± 0.12 |
| IGRRSRALKITE | 0.629 ± 0.03 |
| CPPLSPPLLLLL | 0.667 ± 0.017 |
| KNGANREEYITK | 0.686 ± 0.028 |
| LDSRSELGRGLK | 0.714 ± 0.018 |
| PQPEAPSRPQLA | 0.746 ± 0.065 |
| RVSSAAGGSIDL | 0.738 ± 0.1 |
| TNYQKANIRINN | 0.667 ± 0.035 |
| LKRSYKKQRDNV | 0.698 ± 0.14 |
| PPRRPSFAPPHL | 0.704 ± 0.014 |

| Sequence | protein stability index |
| --- | --- |
| EDSRATNERGRT | 0.704 ± 0.049 |
| ICYGLHVPARRR | 0.63303 ± 0.00013 |
| STPSLPPPPPSS | 0.6806 ± 0.006 |
| GGIQPEQYLNTL | 0.688 ± 0.019 |
| CGLSLRVICLEV | 0.497 ± 0.02 |
| ASNVHSSTARFI | 0.687 ± 0.082 |
| VGLLCVGAGFWG | 0.652 ± 0.014 |
| HQFRPYPLFTAR | 0.733 ± 0.013 |
| VDLCRPLSRPTV | 0.703 ± 0.016 |
| LGVVCLGADLLR | 0.693 ± 0.026 |
| VFLVLFDRLLPL | 0.669 ± 0.0073 |
| GSEAGEPRAGRA | 0.675 ± 0.015 |
| RDLLYHNCRNMI | 0.695 ± 0.027 |
| PAPPAALPPPHP | 0.637 ± 0.077 |
| NVTCRPDKNELT | 0.643 ± 0.035 |
| INCDIIHRRKKG | 0.6462 ± 0.0042 |
| TTQGICWMAKGV | 0.695 ± 0.0088 |
| GGGGGWGVAGGV | 0.689 ± 0.013 |
| PHSSFSLAPPIP | 0.696 ± 0.01 |
| GPSWYGKNSLHK | 0.686 ± 0.051 |

— the supplement of paper PMC10724198
